Assay results reported in patent US20120245104A1, “NOVEL RETRO-INVERSO LEPTIN PEPTIDE ANTAGONISTS” (priority 2011, published 2012).
Where no end group is shown, it is not given here.

T1: leptin receptor (ObR) (UniProt P48357 22-1165, limits assumed)
T1 sequence (looked up): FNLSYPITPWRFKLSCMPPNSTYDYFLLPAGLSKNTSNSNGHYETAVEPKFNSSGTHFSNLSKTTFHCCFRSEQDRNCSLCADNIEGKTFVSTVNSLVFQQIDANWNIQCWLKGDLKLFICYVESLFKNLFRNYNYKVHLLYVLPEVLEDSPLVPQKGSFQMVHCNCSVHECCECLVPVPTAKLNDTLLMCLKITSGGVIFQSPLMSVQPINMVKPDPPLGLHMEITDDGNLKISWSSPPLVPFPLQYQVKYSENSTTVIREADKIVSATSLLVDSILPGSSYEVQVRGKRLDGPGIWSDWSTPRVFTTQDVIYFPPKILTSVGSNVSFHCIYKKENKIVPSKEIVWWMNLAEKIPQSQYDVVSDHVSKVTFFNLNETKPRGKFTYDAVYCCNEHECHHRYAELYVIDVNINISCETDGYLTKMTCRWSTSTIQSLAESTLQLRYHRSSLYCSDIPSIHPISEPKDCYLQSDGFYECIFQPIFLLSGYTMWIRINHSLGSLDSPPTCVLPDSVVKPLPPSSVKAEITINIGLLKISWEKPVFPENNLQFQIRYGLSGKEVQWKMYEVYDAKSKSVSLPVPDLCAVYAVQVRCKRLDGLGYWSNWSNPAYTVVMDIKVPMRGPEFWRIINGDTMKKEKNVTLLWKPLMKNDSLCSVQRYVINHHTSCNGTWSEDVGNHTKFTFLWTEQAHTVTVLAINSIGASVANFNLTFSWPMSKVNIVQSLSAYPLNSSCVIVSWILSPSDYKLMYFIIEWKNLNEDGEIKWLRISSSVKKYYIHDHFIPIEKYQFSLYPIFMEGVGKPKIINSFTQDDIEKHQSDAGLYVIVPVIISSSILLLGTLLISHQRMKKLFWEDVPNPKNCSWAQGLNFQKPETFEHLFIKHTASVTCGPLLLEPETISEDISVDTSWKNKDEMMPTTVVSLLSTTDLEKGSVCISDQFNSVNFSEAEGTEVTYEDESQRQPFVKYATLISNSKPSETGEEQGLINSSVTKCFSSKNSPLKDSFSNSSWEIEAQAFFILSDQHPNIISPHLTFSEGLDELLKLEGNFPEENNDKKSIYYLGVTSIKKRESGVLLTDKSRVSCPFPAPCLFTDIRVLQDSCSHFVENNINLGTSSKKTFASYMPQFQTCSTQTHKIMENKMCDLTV


Experiments:
leptin receptor (ObR) [1] = molecular target: T1, leptin receptor (ObR); assay: cell-based or functional assay
leptin receptor (ObR) [2] = molecular target: T1, leptin receptor (ObR); assay: cell-based or functional assay; remark: listed apart in the source

Binder | IC50, inhibition of leptin-induced growth of MCF-7 cells (leptin receptor (ObR) [1]) | IC50 (half maximal inhibitory concentration), inhibition of leptin-induced cell growth (leptin receptor (ObR) [2])
SRNVIQISNDLENLRDLLHVLAFSKS-NH2 [Full-length LPA-2 (70-95)] | 33 nM | 33 nM
VQDDTKTLIKTIVTRINDI-NH2 [Truncated LPA-1 (6-24), T10 (original amino acid)] | 25.7 nM | 25.7 nM
NVIQISNDLENLRDLLHV-NH2 [Truncated LPA-2 (72-89), D79 (original amino acid)] | 32 nM | 32 nM
